The source of these data is patent US20100197582A1.

The target of this test is human GHR stably expressed in human 293 cells (human) (UniProt P10912). The test can be described thus: cell-based or functional assay.
UniProt P10912, sequence (P10912 19-638): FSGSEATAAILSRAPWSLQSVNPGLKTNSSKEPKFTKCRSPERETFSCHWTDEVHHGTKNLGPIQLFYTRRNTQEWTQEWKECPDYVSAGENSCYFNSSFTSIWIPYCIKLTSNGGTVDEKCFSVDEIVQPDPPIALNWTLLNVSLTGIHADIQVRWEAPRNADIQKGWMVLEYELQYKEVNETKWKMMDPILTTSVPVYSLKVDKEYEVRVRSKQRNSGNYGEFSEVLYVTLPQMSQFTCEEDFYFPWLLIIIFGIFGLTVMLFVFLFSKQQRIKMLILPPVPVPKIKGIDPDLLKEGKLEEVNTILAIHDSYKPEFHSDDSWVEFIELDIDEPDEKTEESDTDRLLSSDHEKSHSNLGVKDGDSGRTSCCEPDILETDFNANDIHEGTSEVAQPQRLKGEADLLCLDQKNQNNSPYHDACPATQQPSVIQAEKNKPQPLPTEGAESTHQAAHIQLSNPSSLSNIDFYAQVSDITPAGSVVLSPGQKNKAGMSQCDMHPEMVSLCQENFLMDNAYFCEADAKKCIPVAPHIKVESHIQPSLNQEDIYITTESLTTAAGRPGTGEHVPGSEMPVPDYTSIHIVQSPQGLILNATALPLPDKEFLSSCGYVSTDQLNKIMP

The substance “LR-fusion (human GH linked to the A & B domains of the GHR extracellular domain, exGHR1-238, via a (Gly4Ser)4 linker) (from UniProt P01241 27-217; P10912 1-238)” registered a bioactivity in GH-specific luciferase reporter assay (Stat 5 luciferase reporter), relative to GH of 10% and a concentration giving maximal response, Stat 5 luciferase-reporter assay of 50 to 250 nM.
